Reference: the supplement of paper PMC7877785
± gives the uncertainty stated by the source.

Test: self-splicing fitness, log relative to wild type (ln ratio); higher = more splicing; Tetrahymena group I intron in knt gene, E. coli kanamycin selection, DiMSum; sequences stand for … in CUCUCU…GGAGGGAAAAGUUAUCAGGCAUGCACCUGGUAGCUAGUCUUUAAACCAAUAGAUUGCAUCGGUUUAAAAGGCAAGACCGUCAAAUUGCGGGAAAGGGGUCAACAGCCGUUCAGUACCAAGUCUCAGGGGAAACUUUGAGAUGGCCUUGCAAAGGGUAUGGUAAUAAGCUGACGGACAUGGUCCUAACCACGCAGCCAAGUCCUAAGUCAACAGAUCUUCUGUUGAUAUGGAUGCAGUUCACAGACUAAAUGUCGGUCGGGGAAGAUGUAUUCUUCUCAUAAGAUAUAGUCGGACCUCUCCUUAAUGGGAGCUAGCGGAUGAAGUGAUGCAACACUGGAGCCGCUGGGAACUAAUUUGUAUGCGAAAGUAUAUUGAUUAGUUUUGGAGUACUCGUGGUCG
Procedure, shortened: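 Library with all eight P1ex-region intron nucleotides randomised, intron inside the knt kanamycin-resistance gene on pET-22b(+), in E. coli BL21(DE3). Cells grew overnight at 37°C or 30°C on LB agar with or without 25 μg/mL kanamycin (plus 100 μg/mL carbenicillin, 50 μM IPTG, 0.2% rhamnose), in six replicate transformations. Pooled colonies were amplicon-sequenced on Illumina HiSeq 2500. DiMSum fitness is the error-weighted combination of wild-type-normalised replicate fold changes, kanamycin versus none.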

| Sequence | self-splicing fitness (ln) (30 °C) | self-splicing fitness (ln) (37 °C) |
| --- | --- | --- |
| GGGGAGCAAUAUUACGUAAU | -4.07 ± 0.47 | -0.557 ± 0.19 |
| CUCGAGCAAUAUUACGUAUG | -2.93 ± 0.14 | -1.2 ± 0.13 |
| CACAAGCAAUAUUACGGAUC | -4.63 ± 0.39 | -2.09 ± 0.13 |
| CUACAGCAAUAUUACGUCCA | -3.07 ± 0.25 | -1.3 ± 0.24 |
| AUCGAGCAAUAUUACGACAU | -0.347 ± 0.013 | 0.0643 ± 0.033 |
| CGGCAGCAAUAUUACGGGGA | -3.21 ± 0.16 | -3.07 ± 0.21 |
| UCCCAGCAAUAUUACGGUGG | -3.65 ± 0.15 | -2.5 ± 0.15 |
| AUUAAGCAAUAUUACGUCUA | -0.611 ± 0.093 | 0.119 ± 0.091 |
| GUUAAGCAAUAUUACGUAUG | -2.44 ± 0.12 | -1.36 ± 0.13 |
| AGGUAGCAAUAUUACGCUGC | -3.88 ± 0.042 | -2.79 ± 0.054 |
| ACCAAGCAAUAUUACGCCAG | -2.75 ± 0.16 | -1.42 ± 0.18 |
| ACCUAGCAAUAUUACGCCCA | -1.16 ± 0.11 | -0.343 ± 0.12 |
| AUACAGCAAUAUUACGCACU | -0.66 ± 0.11 | 0.0538 ± 0.14 |
| UCAGAGCAAUAUUACGAGCA | – | -2.06 ± 0.48 |
| AAACAGCAAUAUUACGCGAA | -1.95 ± 0.096 | -1.43 ± 0.11 |
| CGCGAGCAAUAUUACGUUGU | -3.93 ± 0.28 | -2.4 ± 0.36 |
| UCAGAGCAAUAUUACGCUUA | -2.91 ± 0.24 | -2.48 ± 0.18 |
| UCGAAGCAAUAUUACGUCUA | 0.0685 ± 0.078 | 0.296 ± 0.077 |
| AGGUAGCAAUAUUACGGCCG | -0.244 ± 0.018 | 0.0571 ± 0.038 |
| UAGGAGCAAUAUUACGGCUA | -0.122 ± 0.11 | 0.147 ± 0.11 |
| CCAGAGCAAUAUUACGUCUG | -3.53 ± 0.2 | -1.63 ± 0.14 |
| AGCCAGCAAUAUUACGCAGC | – | -1.21 ± 0.28 |
| CUCCAGCAAUAUUACGUUUC | -3.65 ± 0.28 | -3.12 ± 0.3 |
| UAUGAGCAAUAUUACGUGCC | -4.14 ± 0.46 | -2.28 ± 0.31 |
| CGACAGCAAUAUUACGACAG | -0.3 ± 0.069 | 0.0609 ± 0.084 |

| Sequence | self-splicing fitness (ln) (30 °C) | self-splicing fitness (ln) (37 °C) |
| --- | --- | --- |
| AGCCAGCAAUAUUACGUGAU | -2.31 ± 0.075 | -1.35 ± 0.098 |
| AAAUAGCAAUAUUACGGCUC | -0.691 ± 0.14 | 0.393 ± 0.18 |
| CGUGAGCAAUAUUACGCACU | -0.892 ± 0.13 | -0.687 ± 0.13 |
| UUCGAGCAAUAUUACGUUGA | -2.77 ± 0.26 | -2 ± 0.21 |
| GGGUAGCAAUAUUACGUCAA | -0.501 ± 0.13 | -0.61 ± 0.21 |
| GAGAAGCAAUAUUACGUGGG | -2.74 ± 0.14 | -2.29 ± 0.19 |
| CCACAGCAAUAUUACGGUCG | -0.147 ± 0.066 | 0.437 ± 0.086 |
| AAGGAGCAAUAUUACGGGCA | -1.9 ± 0.23 | -1.2 ± 0.28 |
| UCACAGCAAUAUUACGUUCU | -3.63 ± 0.22 | -1.5 ± 0.13 |
| AGGUAGCAAUAUUACGCGGG | -3.612 ± 0.026 | -2.38 ± 0.037 |
| CCAGAGCAAUAUUACGCAAU | -2.14 ± 0.2 | -2.05 ± 0.31 |
| AACAAGCAAUAUUACGCGCU | -0.49 ± 0.07 | -0.454 ± 0.078 |
| AUUCAGCAAUAUUACGAGGG | -2.42 ± 0.26 | -1.42 ± 0.34 |
| AUUAAGCAAUAUUACGGAGC | -2.62 ± 0.34 | -2.15 ± 0.31 |
| UGGAAGCAAUAUUACGACAU | -2.825 ± 0.021 | -1.92 ± 0.035 |
| UCUAAGCAAUAUUACGGACC | -1.71 ± 0.24 | -1.99 ± 0.32 |
| AAGGAGCAAUAUUACGGGUA | -2.64 ± 0.24 | -2.3 ± 0.46 |
| CCCGAGCAAUAUUACGUCAG | -3.49 ± 0.15 | -2.51 ± 0.17 |
| CAUGAGCAAUAUUACGUGCC | -3.97 ± 0.33 | -2.47 ± 0.32 |
| ACACAGCAAUAUUACGCAGG | -2.43 ± 0.093 | -1.82 ± 0.1 |
| CCCUAGCAAUAUUACGUGUC | -3.29 ± 0.13 | -2.97 ± 0.19 |
| AAAGAGCAAUAUUACGAUGG | -3.63 ± 0.33 | -1.89 ± 0.25 |
| GACCAGCAAUAUUACGGGCA | -0.306 ± 0.078 | 0.16 ± 0.096 |
| GCACAGCAAUAUUACGAUGC | -3.17 ± 0.2 | -1.88 ± 0.17 |
| AUCGAGCAAUAUUACGCUAC | – | -1.06 ± 0.29 |

| Sequence | self-splicing fitness (ln) (30 °C) | self-splicing fitness (ln) (37 °C) |
| --- | --- | --- |
| GCCUAGCAAUAUUACGCAUA | -0.13 ± 0.18 | -0.428 ± 0.15 |
| AUUAAGCAAUAUUACGCCCG | -1.13 ± 0.22 | 0.13 ± 0.33 |
| ACAAAGCAAUAUUACGGCGG | -0.226 ± 0.08 | -0.154 ± 0.092 |
| UACAAGCAAUAUUACGUGGU | -3.29 ± 0.14 | -3.27 ± 0.17 |
| ACUAAGCAAUAUUACGAAGU | -3.81 ± 0.38 | -2.1 ± 0.35 |
| UGCCAGCAAUAUUACGAAGA | -2.87 ± 0.18 | -1.33 ± 0.14 |
| UUUGAGCAAUAUUACGCAGC | -3.5 ± 0.28 | -2.43 ± 0.21 |
| GGUUAGCAAUAUUACGAACA | -0.6 ± 0.18 | 0.626 ± 0.25 |
| UAUAAGCAAUAUUACGCUUG | -1.75 ± 0.15 | -0.76 ± 0.14 |
| GUGUAGCAAUAUUACGAUGU | -1.36 ± 0.12 | -0.234 ± 0.14 |
| GGUAAGCAAUAUUACGUAUC | -3.54 ± 0.23 | -1.39 ± 0.45 |
| GCAAAGCAAUAUUACGGUAU | -1.32 ± 0.072 | -0.489 ± 0.096 |
| CGGCAGCAAUAUUACGGAAG | -1.07 ± 0.09 | -0.442 ± 0.12 |
| CGAUAGCAAUAUUACGUAUA | -2.37 ± 0.15 | -3.14 ± 0.23 |
| GAAUAGCAAUAUUACGAAUG | -1.42 ± 0.24 | -1.15 ± 0.28 |
| UUGGAGCAAUAUUACGACAG | -1.57 ± 0.15 | -1.23 ± 0.18 |
| AACCAGCAAUAUUACGCAUG | -1.7 ± 0.082 | -0.971 ± 0.083 |
| CUGAAGCAAUAUUACGUAGC | -4.07 ± 0.28 | -3.43 ± 0.24 |
| UUUAAGCAAUAUUACGGGCA | -1.05 ± 0.12 | -0.851 ± 0.14 |
| ACCCAGCAAUAUUACGAUCG | -1.92 ± 0.073 | -0.696 ± 0.096 |
| UACAAGCAAUAUUACGUGCU | -3.34 ± 0.16 | -2.22 ± 0.13 |
| AAAGAGCAAUAUUACGACCU | -1.39 ± 0.15 | -0.748 ± 0.16 |
| CCAUAGCAAUAUUACGUGAA | -3.25 ± 0.21 | -2.07 ± 0.26 |
| CCAGAGCAAUAUUACGCCAA | – | -3.04 ± 0.47 |
| AAAUAGCAAUAUUACGCUCG | -0.663 ± 0.12 | -0.925 ± 0.15 |

| Sequence | self-splicing fitness (ln) (30 °C) | self-splicing fitness (ln) (37 °C) |
| --- | --- | --- |
| GGGCAGCAAUAUUACGUUUG | -1.17 ± 0.098 | -0.133 ± 0.11 |
| UCCUAGCAAUAUUACGGAUC | -3.39 ± 0.23 | -2.53 ± 0.26 |
| GUGAAGCAAUAUUACGCUUC | -4.23 ± 0.32 | -2.41 ± 0.3 |
| AAAUAGCAAUAUUACGACCA | -0.537 ± 0.12 | -0.525 ± 0.17 |
| CAAUAGCAAUAUUACGGACA | -2.44 ± 0.16 | -1.5 ± 0.15 |
| ACGAAGCAAUAUUACGUAAA | -2.9 ± 0.18 | -1.45 ± 0.19 |
| ACAGAGCAAUAUUACGAUCU | -1.68 ± 0.22 | – |
| GCUAAGCAAUAUUACGUUUC | -3 ± 0.16 | -0.945 ± 0.12 |
| GAGCAGCAAUAUUACGACCU | -1.22 ± 0.17 | 0.00279 ± 0.23 |
| AUACAGCAAUAUUACGCAAU | -1.93 ± 0.15 | -1.02 ± 0.16 |
| UGUGAGCAAUAUUACGACCU | -0.867 ± 0.17 | 0.0453 ± 0.26 |
| GUUUAGCAAUAUUACGGGCA | -1.85 ± 0.17 | -0.96 ± 0.15 |
| UAAGAGCAAUAUUACGACCC | -2.18 ± 0.37 | – |
| GACUAGCAAUAUUACGGUCG | -2.05 ± 0.09 | -0.165 ± 0.1 |
| CGUUAGCAAUAUUACGACCU | -0.403 ± 0.2 | -0.596 ± 0.18 |
| AAAUAGCAAUAUUACGUCCC | -0.4 ± 0.21 | -1.33 ± 0.28 |
| CUACAGCAAUAUUACGCCCG | 0.0629 ± 0.15 | -0.112 ± 0.14 |
| AUGGAGCAAUAUUACGCUGG | – | -1.53 ± 0.2 |
| GUCAAGCAAUAUUACGUAUG | -4.08 ± 0.13 | -2.6 ± 0.11 |
| AAGGAGCAAUAUUACGGGAG | -4.8 ± 0.39 | -2.24 ± 0.3 |
| GGUUAGCAAUAUUACGAUUU | 0.309 ± 0.089 | 0.0839 ± 0.12 |
| UCGGAGCAAUAUUACGAAGU | – | -0.529 ± 0.24 |
